Substitutions are numbered along the chain they refer to.
T1: human Nectin-4 (human, UniProt Q96NY8 32-510)
T1 sequence (looked up): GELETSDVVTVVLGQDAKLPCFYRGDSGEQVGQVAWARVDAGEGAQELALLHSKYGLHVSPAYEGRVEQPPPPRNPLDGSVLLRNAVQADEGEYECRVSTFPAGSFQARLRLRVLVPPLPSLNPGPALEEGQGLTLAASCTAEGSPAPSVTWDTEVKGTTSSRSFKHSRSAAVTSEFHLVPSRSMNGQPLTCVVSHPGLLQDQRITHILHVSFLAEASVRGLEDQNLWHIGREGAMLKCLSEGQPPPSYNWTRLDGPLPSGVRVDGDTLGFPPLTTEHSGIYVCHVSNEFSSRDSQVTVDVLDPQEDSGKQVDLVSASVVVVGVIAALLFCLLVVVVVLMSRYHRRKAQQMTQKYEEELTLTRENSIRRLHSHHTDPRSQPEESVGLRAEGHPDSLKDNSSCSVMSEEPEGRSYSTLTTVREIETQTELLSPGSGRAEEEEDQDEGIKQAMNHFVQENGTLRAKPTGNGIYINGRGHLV

T2: His-tagged human NECTIN4 (human, UniProt Q96NY8 32-349)
T2 construct: Antigen of the BIAcore assay; also called antigen; recombinant NECTIN4 protein; not shown: His tag
T2 sequence: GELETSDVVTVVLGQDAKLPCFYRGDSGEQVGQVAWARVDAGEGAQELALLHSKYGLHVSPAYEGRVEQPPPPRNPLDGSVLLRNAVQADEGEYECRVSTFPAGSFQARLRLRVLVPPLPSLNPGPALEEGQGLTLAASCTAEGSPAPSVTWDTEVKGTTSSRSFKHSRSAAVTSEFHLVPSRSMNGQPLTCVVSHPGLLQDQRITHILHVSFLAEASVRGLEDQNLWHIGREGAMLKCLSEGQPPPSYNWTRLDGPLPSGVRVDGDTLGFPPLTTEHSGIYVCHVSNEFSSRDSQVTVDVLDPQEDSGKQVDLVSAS

B1: chimeric antibody 42D20 xiIgG (antibody, V domains shown)
VH: QVQLKESGPGLVAPSQSLSISCTVSGFSLIDYGVSWIRQPPGKGLEWLGVIWGDGKIYYNSVLKSRLSISKDNSKSQVFLKMNSLQTDDTAMYYCAKQGGLLFYAMDYWGQGTSVTVSS
VL: DIVMTQSPSSLAMSVGQRVTMNCKSSQSLLNSYSQKNYLAWYQQKPGQSPKLLIYFASTRESGVPDRFIGSGSETDFTLTISSVQAEDLADYFCQQHYNTPFTFGSGTKLEIKR
B2: 42D20 hz03 (antibody, V domains shown)
VH: QVQLQESGPGLVKPSETLSLTCTVSGFSLIDYGVSWIRQPPGKGLEWIGVIWGDGKIYYNSVLKSRVTISVDTSKNQFSLKLSSVTAADTAVYYCARQGGLLFYAMDYWGQGTLVTVSS
VL: DIVMTQSPDSLAVSLGERATINCKSSQSLLNTYSQKNYLAWYQQKPGQSPKLLIYFASTRESGVPDRFSGSGSETDFTLTISSLQAEDLAVYFCQQHYNTPFTFGAGTKLELKR
notes: Humanized
B3: 42D20 hz23 (antibody, V domains shown)
VH: B2 VH with D54E, V71K, T73N, N76S, F78V, R97K
VL: B2 VL
notes: Humanized
B4: 42D20 hz21 (antibody, V domains shown)
VH: B2 VH with D54E, V71K, T73N, N76S, F78V, R97K
VL: B2 VL with T32S
notes: Humanized
B5: 5M21 hz00 (antibody, human IgG1, kappa, V domains shown)
VH: QVQLVQSGAEVKKPGASVKVSCKASGYTFTTYYIHWVRQAPGQRLEWMGWIYPGNVNTKYNEKFKGRVTITRDTSASTAYMELSSLRSEDTAVYYCARGLYYFDYWGQGTLVTVSS
VL: DIQMTQSPSSLSASVGDRVTITCKASQSVSNDVAWYQQKPGKVPKLLIYYASNRYTGVPSRFSGSGSGTDFTLTISSLQPEDVATYYCQQDYSSPYTFGGGTKVEIKR
notes: Humanized
B6: 5M21 hz10 (antibody, human IgG1, kappa, V domains shown)
VH: B5 VH with R72A, T74K
VL: B5 VL
notes: Humanized
B7: 5M21 hz01 (antibody, human IgG1, kappa, V domains shown)
VH: B5 VH
VL: B5 VL with V83L, Y87F
notes: Humanized
B8: 5M21 hz11 (antibody, human IgG1, kappa, V domains shown)
VH: B5 VH with R72A, T74K
VL: B5 VL with V83L, Y87F
notes: Humanized
B9: chimeric antibody 5M21 xiIgG (antibody, V domains shown)
VH: QVQLQQSGPELVKPGASVRITCKASGYTFTTYYIHWVKQRPGQGLEWIGWIYPGNVNTKYNEKFKGKATLTADKSSSTAYMQLSSLTSEDSAVYFCARGLYYFDYWGQGTTLTVSS
VL: SIVMTQTPKFLLVSAGDRLTITCKASQSVSNDVAWYQQKPGQSPKLLIYYASNRYTGVPDRFTGSGYGTDFTFTISTVQAEDLAVYFCQQDYSSPYTFGGGTKLEIKR

Each binder was assayed against T1, human Nectin-4 (assay: cell-based or functional assay).

Endocytosis efficiency (%)	Binder
54%	B1
41.1%	B2
45%	B3
43.9%	B4

The binders below were run against T1, human Nectin-4 (assay: FACS on BT474 cells).
Method: (§1) The solutions of different concentrations were added to 384-well plates, 10 µl per well.
(§2) BT474 cells (breast cancer cells) expressing Nectin-4 on the cell surface were collected by centrifugation at 100 g at room temperature for 5 minutes, and then the cells were washed with PBS containing 0.5% BSA once and were centrifuged at 100 g at room temperature for 5 minutes. […] After incubation at 4° C. for 1 hour, fluorescently labeled goat anti-human IgG secondary antibody was added. After continued incubation at 4° C. for 1 hour, mean fluorescence readings of the cell populations were analyzed by a flow cytometer.
(§3) The experiment results of the binding of engineered humanized molecules of the present disclosure to BT474 cells by FACS assay are shown in panels 3B and 3C in FIG. 3 and Tables 6 and 7.

EC50	Binder
52.2 µg/mL	B5
44.3 µg/mL	B6
48.1 µg/mL	B7
44.5 µg/mL	B8
46.1 µg/mL	B9

What follows are binders tested against T2, His-tagged human NECTIN4 (assay: SPR (BIAcore S200), antigen on CAP chip, antibody as analyte, 1:1 fit).
Method: Interactions between the antibodies and the antigen were measured using a BIAcore instrument S200 from GE. Referring to the instructions provided in Biotin Capture Kit from GE Healthcare, the analytical channel and the control sample channel on CAP sensor chip were first coupled with antigen i.e. His-tagged human NECTIN4, then samples containing antibodies (diluted 3-fold from an initial concentration of 20 nM respectively and solutions of each antibody of 8 concentrations were obtained totally, and the concentration 0.741 nM was set to be repeated) were allowed to flow through both the analytical channel and the sample channel, and the photoreactions upon antibody-antigen binding were measured. Association constant Kon and dissociation constant Koff and affinity constant KD of each antibody were finally obtained by instrument software fitting (1:1 binding mode) analysis.

Kd	koff	kon	Binder
1.01 nM	0.000798 s⁻¹	790000 M⁻¹ s⁻¹	B1

Biological target: T1, human Nectin-4
Assay: cell-based or functional assay
Remark: another data set of the same source

Endocytosis efficiency (%)	Binder
54.8%	B5
64.8%	B6
62.2%	B7
64.4%	B8
56.9%	B9

Biological target: T1, human Nectin-4
Assay: FACS on BT474 cells
Remark: another data set of the same source
Method: as §1, §2, §3

EC50	Binder
0.077 µg/mL	B1
0.0676 µg/mL	B2
0.0503 µg/mL	B3
0.285 µg/mL	B4

Reference: US20230265183A1 (MABWELL SHANGHAI BIOSCIENCE, published 2023)
